Measured values reported in US6861508B2, “Transcriptional intermediary factor-2” (Institut National de la Sante et de la Recherche Medicale, priority 1996, dated 2005).

Legend:
GAL4 reporter = assay: GAL4 DBD-TIF2 fusion CAT reporter transactivation assay; type: cell-based; conditions: Cos-1 and/or HeLa cells
In short: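 Transiently transfected HeLa and Cos-1 cells received plasmids (3 μg; 1-10 μg in titration) expressing TIF2 regions or mutants fused to GAL4 DBD(1-147), plus 1 μg (17m)5-G-CAT reporter. CAT activity measured by TLC phosphoimaging or CAT ELISA, normalized to cotransfected β-galactosidase, expressed as fold over GAL4 DBD alone; mean of ≥3 experiments.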

[1] = target: T1, GST-hERα(DEF) (pGEX2T-hERα(DEF), amino acids 282-595) (human, UniProt P03372 282-595); assay: GST pull-down with 35S in-vitro-translated TIF2 polypeptides, with or without 10^-6 M estradiol
T1 construct: range 282-595; Bacterially produced; also used 32P-labelled as Far-Western probe; also called GST-ER; GST-ER(DEF); not shown: glutathione-S-transferase (GST) of pGEX2T (Pharmacia)
T1 sequence (looked up): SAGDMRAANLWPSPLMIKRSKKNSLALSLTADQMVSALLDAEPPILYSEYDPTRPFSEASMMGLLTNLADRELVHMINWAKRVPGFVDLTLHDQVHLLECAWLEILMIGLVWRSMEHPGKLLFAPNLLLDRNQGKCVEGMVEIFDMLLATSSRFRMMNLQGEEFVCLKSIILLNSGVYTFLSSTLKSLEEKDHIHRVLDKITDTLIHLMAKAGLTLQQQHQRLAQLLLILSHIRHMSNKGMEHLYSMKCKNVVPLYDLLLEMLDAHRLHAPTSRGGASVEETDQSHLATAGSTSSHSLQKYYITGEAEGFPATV

B1: TIF2.2 (TIF2 amino acids 1288-1464) (other)
chain: NPRIPQANAQQFPFPPNYGISQQPDPGFTGATTPQSPLMSPRMAHTQSPMMQQSQANPAYQAPSDINGWAQGNMGGNSMFSQQSPPHFGQQANTSMYSNNMNINVSMATNTGGMSSMNQMTGQISMTSVTSVSTSGLSSMGPEQVNDPALRGGNLFPNQLPGMDMIKQEGDTTRKYC
notes: In-vitro-translated; also called AD2
B1 was tested, and the “transcriptional activation of GAL4 reporter by GAL4 DBD fusion” value (GAL4 reporter) was “able to activate transcription” and the binding result [1] was “no binding”.
